pEC50: −log10 of the molar value.
Assays:
[1] = biological target: unidentified antigen on CHO PD-L1 cells bound by pertuzumab (the filing speculates hamster HER2); assay: flow cytometry, CHO PD-L1 cells (residual binding)
[2] = biological target: unidentified antigen on CHO PD-L1 cells bound by pertuzumab (the filing speculates hamster HER2); assay: flow cytometry, CHO PD-L1 cells; reference pertuzumab

pEC50 [1]: 8.89
rel. EC50 (EC50 reference/EC50 sample) [2]: 1
Substance: pertuzumab (antibody)

Source: patent US20220411536A1
